Tests used:
[1] = molecular target: T1, *^#H chain of ΔLd-6C407 IgG*^#H*^#L (WT VH, all C-region Cys to Ser); test: sandwich ELISA (anti-human Cκ capture); conditions: chain shown with the change; lysates of HEK293 transfectants; empty vector est. 0.15; parent: est. 1.9; read off a plot
T1 chain: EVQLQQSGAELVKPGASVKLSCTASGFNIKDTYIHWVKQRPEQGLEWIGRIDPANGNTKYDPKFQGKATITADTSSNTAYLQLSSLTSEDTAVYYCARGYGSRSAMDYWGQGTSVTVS

[2] = molecular target: *H chain of ΔLd-3D8 IgG1 variants ΔLd-*HL and ΔLd-*H*L (hinge Cys11 and Cys14 to Ser); test: sandwich ELISA (Protein L capture, AP-conjugated anti-human IgG/Fc detection); conditions: chain shown with the change; no heat; lysate of ΔLd-3D8 *H*L transfectants; empty vector est. 0.20; parent: est. 2.2; read off a plot
[3] = molecular target: *^#H chain of ΔLd-3D8 IgG*^#H*^#L (WT VH, all C-region Cys to Ser); test: sandwich ELISA (anti-human Cκ capture); conditions: chain shown with the change; lysates of HEK293 transfectants; empty vector est. 0.15; parent: est. 1.7; read off a plot
[4] = molecular target: T2, *^#H chain of ΔLd-2C281 IgG*^#H*^#L (WT VH, all C-region Cys to Ser); test: sandwich ELISA (anti-human Cκ capture); conditions: chain shown with the change; lysates of HEK293 transfectants; empty vector est. 0.15; parent: est. 1.4; read off a plot
T2 chain: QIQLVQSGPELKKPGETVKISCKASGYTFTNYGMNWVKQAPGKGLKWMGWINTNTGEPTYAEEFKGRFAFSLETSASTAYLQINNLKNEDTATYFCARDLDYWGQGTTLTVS

B1: m6 (L) and m5 (H), WT ΔLd-6C407 IgG *#H*#L: all C-region Cys of inter- and intrachain disulfide bonds to Ser (residue numbers not printed) (protein)
chain: DIVLTQSPASLAVSLGQRATISCRASKSVSTSGYSYMLWYQQKPGQPPKLLIYLASNLESGVPARFSGSGSGTDFTLNIHPVEEEDAATYYCQHSRELPWTFGGGTKLEIK
response (Abs at 405 nm) [1]: 0.15

B2: m2 (L) and m1 (H), ΔLd-HL H:Cys11Ser (hinge); H:Cys14Ser (hinge); L:Cys107Ser (Cκ) (protein)
chain: DIVMSQSPSSLAVSAGEKVTMSCKSSQSLFNSRTRKNYLAWYQQKPGQSPKLLIYWASTRESGVPDRFTGSGPGTDFTLTISSVQAEDLAVYYCKQSYYHMYTFGSGTKLEIK
response (Abs at 405 nm) [2]: 2.3

B3: m2 (L) and m1 (H), WT ΔLd-3D8 IgG *#H*#L: all C-region Cys of inter- and intrachain disulfide bonds to Ser (residue numbers not printed) (protein)
chain: B2 chain
response (Abs at 405 nm) [3]: 0.15

B4: m4 (L) and m3 (H), WT ΔLd-2C281 IgG *#H*#L: all C-region Cys of inter- and intrachain disulfide bonds to Ser (residue numbers not printed) (protein)
chain: DVVMTQTPLSLPVSLGDQASISCRSSQSLVHSNGNTYFHWFLQKPGQSPKLLIYKVSNRFSGVPDRFSGSGSGTDFTLKISRVEAEDLGVYFCSQSTHVPYTFGGGTKLEIK
response (Abs at 405 nm) [4]: 0.15
